According to publication PMC8113602:

How the values were obtained:
SP-gp41-CFP (HIV-1) = assay: FRET or BRET; acceptor photobleaching FRET in HEK293T cells 24 h after transfection; donor SP-gp41-CFP, acceptor CD63-YFP; 514 nm bleaching
[1] = target: gp41 bait of pBT3-SUC-gp41 (ectodomain and transmembrane region of gp41, HIV-1 Env aa 534-709); assay: split-ubiquitin yeast two-hybrid, β-galactosidase activity assay; conditions: yeast NMY51, three independent yeast colonies, parent: est. 39, read off a plot

Substance	reduction of FRET efficiency against CD63-YFP as acceptor (SP-gp41-CFP (HIV-1)) [%]	response [1] [Miller units]
CD63_(C145A,C146A)-YFP (from UniProt P08962 1-238) (natural protein)	< 58	–
CD63 TM4LEL (aa 108-238), single membrane spanning prey (from UniProt P08962) C145A; C146A	–	11
CD63 TM4LEL (aa 108-238), single membrane spanning prey (from UniProt P08962) C177A	–	25
CD63 TM4LEL (aa 108-238), single membrane spanning prey (from UniProt P08962) C191A	–	17
CD63 TM4LEL (aa 108-238), single membrane spanning prey (from UniProt P08962) C169A; C170A	–	30
